Source: patent publication US20170240648A1 (KOLLTAN PHARMACEUTICALS, published 2017)
Substitutions are numbered along the chain they refer to. Names may count otherwise.

How the values were obtained:
[1] = biological target: T1, ErbB3 domain III, His-tagged (human, UniProt P21860 329-521); experiment: SPR (BIAcore T100, 25 C), 2C2 Fab immobilised on CM5 chip, ErbB3 domain III in flow
T1 construct: also called purified domain III; D3; not shown: His tag

[2] = biological target: T2, ErbB3 extracellular domain, His-tagged (human, UniProt P21860 20-643); experiment: SPR (BIAcore T100, 25 C), 2C2 Fab immobilised on CM5 chip, ErbB3 ECD in flow
T2 construct: Expressed in baculovirus-infected Sf9 cells and de-glycosylated for crystallography; also called ErbB3-ECD; ErbB3 ECD; not shown: C-terminal hexa-histidine tag, told in words only

[3] = biological target: T3, cell-surface expressed ErbB3 (Homo sapiens (Human), UniProt P21860 20-1342); experiment: flow cytometry, Alexa-647-labelled 2C2 titrated on BaF3 cells co-expressing ErbB2 and ErbB3, on ice; single-site binding isotherm
T3 construct: also called HER3

[4] = biological target: T4, ErbB3 domain IV, His-tagged (human, UniProt P21860 522-643); experiment: ELISA, His-tagged ErbB3 domain IV coated on the plate, 2C2 titrated, HRP anti-human secondary antibody, chemiluminescence
T4 construct: also called D4; not shown: His tag

[5] = biological target: T5, ErbB3 domain I, His-tagged (human, UniProt P21860 20-201); experiment: ELISA, His-tagged ErbB3 domain I coated on the plate, 2C2 titrated, HRP anti-human secondary antibody, chemiluminescence
T5 construct: also called D1; not shown: His tag

[6] = biological target: T6, ErbB3 domain II, His-tagged (human, UniProt P21860 202-328); experiment: ELISA, His-tagged ErbB3 domain II coated on the plate, 2C2 titrated, HRP anti-human secondary antibody, chemiluminescence
T6 construct: also called D2; not shown: His tag

[7] = biological target: T1, ErbB3 domain III, His-tagged; experiment: ELISA, His-tagged ErbB3 domain III coated on the plate, 2C2 titrated, HRP anti-human secondary antibody, chemiluminescence
[8] = biological target: T2, ErbB3 extracellular domain, His-tagged; experiment: SPR (BIAcore T100), Fab immobilised on a CM5 chip, ErbB3-ECD passed over in rising concentrations, long dissociation, 1:1 binding model

B1: 2C2 Fab (Fab, V domains shown)
VH: EVQLLESGGGLVQPGGSLRLSCAASGFTFSYYYMQWVRQAPGKGLEWVSYIGSSGGVTNYADSVKGRFTISRDNSKNTLYLQMNSLRAEDTAVYYCARVGLGDAFDIWGQGTMVTVSS
VL: QSVLTQPPSASGTPGQRVTISCSGSLSNIGLNYVSWYQQLPGTAPKLLISRNNQRPSGVPDRFSGSKSGTSASLAISGLRSEDEADYYCAAWDDSPPGEAFGGGTKLTVL
notes: Fab expressed in E. coli (pET26b, pelB signal peptide); also called Fab fragment of 2C2; Fab 2C2
Kd [1]: 0.377 nM
Kd [2]: 0.166 nM

B2: 2C2 antibody (whole antibody used in the examples was 2C2-YTE) (antibody, V domains shown)
VH: B1 VH
VL: B1 VL
notes: Whole anti-ErbB3 antibody of WO 2013/078191
Kd [3]: 0.08 nM
binding result [4]: no binding (tested: about 60 nM (log nM about 1.8))
binding result [5]: no binding (tested: about 60 nM (log nM about 1.8))
binding result [6]: no binding (tested: about 60 nM (log nM about 1.8))
EC50 (read off the curve) [7]: ~0.5 nM

B3: S25H Fab (Fab, V domains shown)
VH: B1 VH
VL: B1 VL with S25H
notes: 2C2 Fab variant with serine to histidine at residue 25 of the light chain (CDR1), made by QuikChange mutagenesis; also called S25H Fab antibody
koff [8]: 5.5e-05 s⁻¹

B4: S23R Fab (Fab, V domains shown)
VH: B1 VH
VL: B1 VL with S23R
notes: 2C2 Fab variant with serine to arginine at residue 23 of the light chain (CDR1); also called S23R Fab antibody
koff [8]: 8.3e-05 s⁻¹
